The text below walks through data of the supplement of paper PMC11908140.

To fix the notation:
B1: library; numbered along this chain (parent)
chain: MRKPRAAVGSGHRKQAASQEGRQKHAKNNSQAKPSACDGLARQPEEVVLQASVSSYHLFRDVAEVTAFRGSLLSWYDQEKRDLPWRRRAEDEMDLDRRAYAVWVSEVMLQQTQVATVINYYTGWMQKWPTLQDLASASLEEVNQLWAGLGYYSRGRRLQEGARKVVEELGGHMPRTAETLQQLLPGVGRYTAGAIASIAFGQATGVVDGNVARVLCRVRAIGADPSSTLVSQQLWGLAQQLVDPARPGDFNQAAMELGATVCTPQRPLCSQCPVESLCRARQRVEQEQLLASGSLSGSPDVEECAPNTGQCHLCLPPSEPWDQTLGVVNFPRKASRKPPREESSATCVLEQPGALGAQILLVQRPNSGLLAGLWEFPSVTWEPSEQLQRKALLQELQRWAGPLPATHLRHLGEVVHTFSHIKLTYQVYGLALEGQTPVTTVPPGARWLTQEEFHTAAVSTAMKKVFRVYQGQQPGTCMGSKRSQVSSPCSRKKPRMGQQVLDNFFRSHISTDAHSLNSAAQ
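Also: cells sorted at 72 h after reporter transfection.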

Variants of B1 are the subject of the data set. Nature of the data set: 8OG:A repair function score (normalized; synonymous = 0, nonsense = -1) (normalized log-likelihood score); higher = more repair activity (WT-like). The note with it: with 8OG:A DNA repair reporter (GFP) in HEK-293 MUTYH KO cells. Summed up: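 Per-tile Rosace fitness scores were converted to a normalized repair function score anchored on synonymous and nonsense distributions. That scale puts synonymous medians at 0 and nonsense medians at -1. Variants with starting counts under 300 counts per million were discarded. Input came from sorting viable mCherry+ MUTYH knockout HEK-293 cells, carrying lentiviral MUTYH cDNA NNN codon-scan libraries in 10 pg/ml doxycycline and an 8OG:A GFP repair reporter, into GFP+ and GFP− bins at 72 h, three replicates per tile, followed by tile amplicon sequencing.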
As for E46Y, the “8OG:A repair function score” value is -0.0657.

Take P84L: the “8OG:A repair function score” value is -0.233.

C311S: the “8OG:A repair function score” value is -0.588.

As for C311V, the “8OG:A repair function score” value was -0.634.

Turning to P129L, the “8OG:A repair function score” value was -0.577.

Take P129K: the “8OG:A repair function score” value was -0.414.

P129D: the “8OG:A repair function score” value was -0.0868.

Turning to L215C, the “8OG:A repair function score” value was -0.768.

With L215P, the “8OG:A repair function score” value is -1.03.

For L325W, the “8OG:A repair function score” value was -0.0969.

In the case of E90V, the “8OG:A repair function score” value came to 0.0003.

For the variant Q351V, the “8OG:A repair function score” value worked out at 0.000574.

Regarding C314M, the “8OG:A repair function score” value is -0.46.

For G479M, the “8OG:A repair function score” value is -0.0116.

V468H: the “8OG:A repair function score” value is -0.0347.

For the variant T228V, the “8OG:A repair function score” value was 0.153.

Y425H: the “8OG:A repair function score” value is -0.0609.

As for Q388Y, the “8OG:A repair function score” value is -0.235.

For G209C, the “8OG:A repair function score” value turned out to be 0.162.

In the case of Q240D, the “8OG:A repair function score” value was -0.979.

In the case of Q240L, the “8OG:A repair function score” value was -0.948.

Consider A192F, for which the “8OG:A repair function score” value was -1.12.

Turning to A253Y, the “8OG:A repair function score” value is -0.985.

Regarding S74Q, the “8OG:A repair function score” value was found to be 0.00637.

Regarding S74W, the “8OG:A repair function score” value is -0.0127.

As for S231V, the “8OG:A repair function score” value is -0.0155.

With R279E, the “8OG:A repair function score” value was -0.233.

Regarding C272V, the “8OG:A repair function score” value was -1.12.

Consider C272S, for which the “8OG:A repair function score” value is -1.17.

In the case of R87V, the “8OG:A repair function score” value was -0.0326.

On to E79F, for which the “8OG:A repair function score” value turned out to be 0.000542.

Turning to Q182R, the “8OG:A repair function score” value was -0.0127.

For Q182L, the “8OG:A repair function score” value is -0.0117.

Consider T436N, for which the “8OG:A repair function score” value was -0.0228.

As for Q144E, the “8OG:A repair function score” value was -0.0907.

Turning to S459G, the “8OG:A repair function score” value was -0.212.

R389S: the “8OG:A repair function score” value is -0.117.

On to K390G, for which the “8OG:A repair function score” value is -0.0253.

With E395S, the “8OG:A repair function score” value turned out to be 0.0493.

For E395K, the “8OG:A repair function score” value is -0.345.

Regarding G356W, the “8OG:A repair function score” value is -0.0772.

Take T204A: the “8OG:A repair function score” value is -0.0766.

Take Q323A: the “8OG:A repair function score” value is -0.0752.

Q323E: the “8OG:A repair function score” value was -0.0118.

Q323R: the “8OG:A repair function score” value was -0.099.

Consider Q126T, for which the “8OG:A repair function score” value is 0.049.

For C489Q, the “8OG:A repair function score” value is -0.0376.

On to C489N, for which the “8OG:A repair function score” value turned out to be 0.0265.

For the variant C489D, the “8OG:A repair function score” value was determined as 0.013.

Consider C489K, for which the “8OG:A repair function score” value was -0.0226.

Take C489A: the “8OG:A repair function score” value was -0.00252.

Take G205N: the “8OG:A repair function score” value is -0.947.

As to G205M, the “8OG:A repair function score” value was -0.711.

G205Y: the “8OG:A repair function score” value was -0.873.

As for L131T, the “8OG:A repair function score” value was -0.0104.

In the case of C477P, the “8OG:A repair function score” value was -0.00239.

H57G: the “8OG:A repair function score” value was -0.607.

Turning to L49M, the “8OG:A repair function score” value stood at 0.233.

On to N366I, for which the “8OG:A repair function score” value was -0.169.

For Q265P, the “8OG:A repair function score” value was -0.252.

As to R88A, the “8OG:A repair function score” value turned out to be 0.00657.

As for E275A, the “8OG:A repair function score” value stood at 0.0221.

For the variant G248C, the “8OG:A repair function score” value is -0.885.

In the case of Q472I, the “8OG:A repair function score” value is 0.0116.

Take Q472F: the “8OG:A repair function score” value turned out to be 0.018.

With L355S, the “8OG:A repair function score” value was -0.0259.

Take S480Y: the “8OG:A repair function score” value was -0.0114.

For the variant S480M, the “8OG:A repair function score” value was 0.0231.

As to S480A, the “8OG:A repair function score” value is 0.0216.

For the variant F418T, the “8OG:A repair function score” value is -0.165.

As for F418N, the “8OG:A repair function score” value is -0.355.

As to P244F, the “8OG:A repair function score” value was -0.422.

Turning to G188F, the “8OG:A repair function score” value is -1.06.

Turning to V415S, the “8OG:A repair function score” value was determined as 0.0289.

Regarding V415I, the “8OG:A repair function score” value was determined as 0.053.

Regarding G150W, the “8OG:A repair function score” value was -1.09.

Take G150N: the “8OG:A repair function score” value was -1.15.

As for G150C, the “8OG:A repair function score” value is -0.982.

With Y190K, the “8OG:A repair function score” value was -1.27.

Regarding T176I, the “8OG:A repair function score” value is -0.31.

In the case of K127Q, the “8OG:A repair function score” value was -0.208.

For the variant K127N, the “8OG:A repair function score” value is -0.0772.

As for S367R, the “8OG:A repair function score” value was -0.201.
